Reference: patent US20210292393A1 (published 2021)

B1: antibody 545 (antibody, V domains shown)
VH: QVQLVQSGSELKKPGASVKVSCKASGYTFTSYAMNWVRQAPGQGLEWMGWINTNTGNPTYAQGFTGRFVFSLDTSVSTAYLQISVLKAEDTGVYYCARDHELPNSSSWFGHFEYWGQGTLVTVSS
VL: SYELTQPPSVSVSPGQTARITCSGDALPKQYAYWYQQKAGQAPVLVIYKDSERRSGIPERFSGSSSGTTVTLTISGVQAEDEADYYCQSADSSGTSVVFGGGTKLTVL
B2: antibody 544 (antibody, V domains shown)
VH: QVQLQQWGAGLLKPSETLSLTCAVYGGSFSGYYWSWIRQPPGKGLEWIGEINHSGSTNYNPSLKSRVTISVDTSKNQFSLKLSSVTAADTAVYYCARGFKWFGELLFGAQGTLVTVSS
VL: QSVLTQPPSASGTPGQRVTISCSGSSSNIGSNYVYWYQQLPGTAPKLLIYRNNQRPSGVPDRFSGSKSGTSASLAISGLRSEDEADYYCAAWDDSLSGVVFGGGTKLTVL
B3: antibody 470 (antibody, V domains shown)
VH: not shown
VL: QSALTQPASVSGSPGQSITISCTGTSSDVGSYNLVSWYQQHPGKAPKLMIYEVSKRPSGVSNRFSGSKSGNTASLTISGLQAEDEADYYCCSYAGSSTLVFGGGTKLTVL
B4: antibody 485 (antibody, V domains shown)
VH: QVQLQESGPGLVKPSGTLSLTCAVSGASISSSNWWSWVRQPPGKGLEWIGEIYHSGSTNYNPSLKSRVTISVDKSKNQFSLKLSSVTAADTAVYYCARRSYYGSGSYYPFDYWGQGTLVTVSS
VL: QSALTQPASVSGSPGQSITISCTGTSSDVGSYNLVSWYQQHPGKAPKLMIYEGRKRPSGVSNRFSGSKSGNTASLTISGLQAEDEADYYCCSYAGSSTYVFGTGTKVTVL
B5: antibody 452 (antibody, V domains shown)
VH: QVQLVESGGGLVKPGGSLRLSCAASGFTFSDYYLSWIRQAPGKGLEWVSYISSSGSNIYYADSVKGRFTISRDNAKNSLYLQMNSLRADDTAVFYCARAGRYCSGGSCRVEYFQHWGQGTLVTVSS
VL: SYELTQPPSVSVSPGQTARITCSGDALPKQYAYWYQQKPGQAPVLVIYKDNERPSGIPERFSGSSSGTTATLTISGVQAEDEADYYCQSADSSGTVVFGGGTKLTVL
B6: antibody 476 (antibody, V domains shown)
VH: QVQLVQSGSELKKPGASVKVSCKASGYTFTSYAMNWVRQAPGQGLEWMGWINTNTGNPTYAQGFTGRFVFSLDTSVSTAYLQISSLKAEDTGVYYCARDHELPNSSSWFGHFEYWGQGTLVTVSS
VL: SYELTQPPSVSVSPGQTARITCSGDALPKQYAYWYQQKAGQAPVLVIYKDSERRSGIPERFSGSSSGTTVTLTISGVQAEDEADYYCQSADSSGTSVVFGGGTKLTVL
B7: antibody 434 (antibody, V domains shown)
VH: QVQLVQSGAEVKKPGASVQVSCKASGYTFSDYYIFWVRQAPGQGLEWMGCINPKSGGAIYAQRFQGRVTMTRDTSFNTAYMEMNRLGSDDTAVYYCVTRGPPDIAASGFAWHLDVWGQGTTVTVSS
VL: DIVMTQSPLSLPVTPGEPASISCRSSQSLLSSNGYNYLEWYLQKPGQSPQLLMYLGSNRASGVPDRFSGSGSGTDFTLKINRVEAEDVGVYYCMQALQTPLTFGGGTKVEIK
B8: antibody 439 (antibody, V domains shown)
VH: QVQLVESGGGVVQPGRSLRLSCAASGFTFSSYAMHWVRQAPGKGLEWVAVISYDGSNKYYADSVKGRFTISRDNSKNTLYLQMNSLRAEDTAVYYCARPPRGGSYYPFDPWGQGTLVTVSS
VL: not shown
B9: antibody 474 (antibody, V domains shown)
VH: EVQLVESGGGLVQPGGSLRLSCAASGFTFSSYWMHWVRQAPGKGLVWVSRINSDGSSTSYADSVKGRFTISRDNAKNTLYRQMNSLRAEDTAVYYCALGPLDIVGSYYYYGMDVWGQGTTVTVSS
VL: NFMLTQPHSVSESPGKTVTISCTGSSGSIASNYVQWYQQRPGSAPTTVIYEDNQRPSGVPDRFSGSIDSSSNSASLTISGLKTEDEADYYCQSYDSSNQDVVFGGGTKLTVL
B10: antibody 443 (antibody, V domains shown)
VH: QMRLEESGPGLVKPSETLSLTCTVAGGSITSSDYFWGWLRQSPGKGLEWIASTYHGGSIQYHPALKSRVTISVDASKNQISLRLSSVTAADTAVYYCARDRGDDGPMGTYYFDHWGQGALVTVSS
VL: QSVLTQPPSVSGAPGQSVTISCAGSSSNIGAGHDVHWYQQIPGTAPKLLICGNTNRPSGVPERFSGSRSGTSASLAITGLQAEDEAVYYCQSYDPSHVFFGTGTKLTVL
B11: antibody 444 (antibody, V domains shown)
VH: QVQLVESGGGLVKPGGSLRLSCAASGFTFSDYYMSWIRQAPGKGLEWVSYISSSGSTIYYADSVKGRFTISRDNAKNSLYLQMNSLRAEDTAVYYCARERKVVVAATRNYYYYYGMDVWGQGTTVTVSS
VL: SYELTQPPSVSVSPGQTARITCSGDALPKQYAYWYQQKPGQAPVLVIYKDSERPSGIPERFSGSSSGTTVTLTISGVQAEDEADYYCQSADSSTWVFGGGTKLTVL
B12: antibody 475 (antibody, V domains shown)
VH: QVQLVESGGGVVQPGRSLRLSCAASGFTFSSYAMHWVRQAPGKGLEWVTFISHEGSNKYYADSVKGRFTISRDNSKNTLYLQMNSLRAEDTAVYYCARTFEYSSSSATGDFDYWGQGTLVTVSS
VL: QSVLTQPPSVSGAPGQRVTISCTGSSSNIGAGYDVHWYQQLPGTAPKLLIYGNSNRPSGVPDRFSGSKSGTSASLAITGLQAEDEADYYCQSYDSSLSGVVFGGGTKLTVL
B13: antibody 477 (antibody, V domains shown)
VH: QVQLVESGGGVVQPGRSLRLSCAASGITFSSYAMHWVRQAPGKGLEWVAVISYDGSDKYHADSVKGRFAISRDNSKNTLYLQMNSLRAEDTAVYYCAKDKGIAVAGTGWIRPDPEYYFDYWGQGTLVTVSS
VL: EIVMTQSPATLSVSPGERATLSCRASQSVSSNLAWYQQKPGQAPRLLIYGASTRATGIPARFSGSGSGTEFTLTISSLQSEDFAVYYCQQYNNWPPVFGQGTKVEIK
B14: antibody 454 (antibody, V domains shown)
VH: QVQLVQSGAEVKKPGASLKVSCKASGYIFTGYYMHWVRQAPGQGLEWMGWISPNSGGTKYAQKFQGRVTMTRDTSISTAYMELSRLRSDDSAVYYCAREPYYDILTGYYTPRRYLDYWGQGTLVTVSS
VL: QSALTQPASVSGSPGQSITISCTGTSSDVGDYNYVSWYQQHPGKVPKLMIYDVSHRPSGVTNRFSGSKSGNTASLTISGLRAEDEADYYCSSYTSSSTYVFGTGTKVTVL
B15: antibody 446 (antibody, V domains shown)
VH: QVQLVESGGGVVQPGRSLRLSCAASGFTFSSYAMHWVRQAPGKGLEWVAVISYDGSNKYYADSVKGRFTISRDNSKNTLYLQMNSLRAEDTAVYYCARPNSGSYFGYFQHWGQGTLVTVSS
VL: QSVLTQPPSVSGAPGQRVTISCTGSSSNIGAGYDVHWYQQLPGTAPKLLIYGNSNRPSGVPDRFSGSKSGTSASLAITGLQAEDEADYYCQSYDSSLSGFYVFGTGTKVTVL
B16: antibody 431 (antibody, V domains shown)
VH: QVQLVESGGGVVQPGRSLRLSCAASGFTFSSYAMHWVRQAPGKGLEWLAVISYDGSNKYYADSVKGRFTISRDNSKNTLYLQMNSLRAEDTAVYYCARSFRGGYYYGMDVWGQGTTVTVSS
VL: DIQLTQSPSFLSASVGDRVTITCRASQGISSYLAWYQQKPGKAPKLLIYAASTLQSGVPSRFSGSGSGTEFTLTISSLQPEDFATYYCQQLNSYPLFTFGPGTKVDIK

Molecular target: SARS-CoV spike protein (full-length trimeric, conjugated to optically encoded beads) (SARS-CoV, UniProt P59594 14-1190)

First: B1
Second: B2
The “fold over isotype control (median fluorescence intensity)” value of the first is higher: 1.13 fold over isotype for the first, 1.05 fold over isotype for the second.

Molecular target: SARS-CoV spike protein (full length, trimeric) (SARS-CoV, UniProt P59594 14-1190)

First: B3
Second: B4
The “fold over isotype control (median fluorescence)” value (from here on “fold … (median fluorescence)”) of the first is lower: 1.09 fold over isotype for the first, 1.12 fold over isotype for the second.

Going from B5 to B6, the “fold … (median fluorescence)” value falls from 1.09 fold over isotype to 1.04 fold over isotype.

First: B7
Second: B8
The “fold … (median fluorescence)” value of the first is higher: 1.36 fold over isotype for the first, 1.23 fold over isotype for the second.

Going from B9 to B10, the “fold … (median fluorescence)” value falls from 1.1 fold over isotype to 1.03 fold over isotype.

Compared with B11, B12 is higher in “fold … (median fluorescence)” value: 1 fold over isotype for the first, 1.18 fold over isotype for the second.

First: B13
Second: B14
The “fold … (median fluorescence)” value of the first is higher: 1.3 fold over isotype for the first, 1.1 fold over isotype for the second.

For B15, the “fold … (median fluorescence)” value was 6.58 fold over isotype.

Molecular target: SARS-CoV spike protein (full length spike, trimeric, conjugated to beads) (SARS-CoV, UniProt P59594 14-1190)

In the case of B16, the “median fluorescence fold over isotype control” value is reported as 49.9 fold over isotype control.
